B1: DVD2307 (bispecific antibody)
VH: EVQLVQSGGGLVKPGGSLRLSCAASGFTFSSFAMHWVRQAPGKGLEWISVIDTRGATYYADSVKGRFTISRDNAKNSLYLQMNSLRAEDTAVYYCARLGNFYYGMDVWGQGTTVTVSSASTKGPEVQLVESGGGLVQPGGSLRLSCAASGFSLTNYGVHWVRQAPGKGLEWLGVGWSGGNTDYNTPFTSRLTINKDNSKNTVYLQMNSLRAEDTAVYYCARALTWYDYEFAYWGQGTLVTVSS
VL: EIVLTQSPGTLSVSPGERATLSCRASQSIGSSLHWYQQKPGQAPRLLIKYASQSLSGIPDRFSGSGSGTDFTLTISRLEPEDFAVYYCHQSSRLPHTFGQGTKVEIKRTVAAPDILLTQSPGTLSLSPGERATLSCRASQSIYTNIHWYQQKPGQAPRLLIKYASESISGIPDRFSGSGSGTDFTLTISRLEPEDFAVYYCQQNLNWPTTFGQGTKLEIK
notes: DVD-Ig, outer AB077 / inner AB400
B2: DVD2338 (bispecific antibody)
VH: QVQLQESGPGLVKPSEILSLTCTVSGGSISSHYWSWVRQPPGKGLEWIGYIYYSGSTNYNPSLKSRVTISVDTSKNQFSLNLSSVTAADTAVYYCARIPNYYDRSGYYPGYWYFDLWGRGTLVTVSSASTKGPEVQLVESGGGLVQPGGSLRLSCAASGFSLTNYGVHWVRQAPGKGLEWLGVGWSGGNTDYNTPFTSRLTINKDNSKNTVYLQMNSLRAEDTAVYYCARALTWYDYEFAYWGQGTLVTVSS
VL: QAVLTQPSSLSAPPGASASLTCTLRSGFNVDSYRISWYQQKPGSPPQYLLRYKSDSDKQQGSGVPSRFSGSKDASANAGILLISGLQSEDEADYYCMIWHSSAWVFGGGTKLTVLRQPKAAPDILLTQSPGTLSLSPGERATLSCRASQSIYTNIHWYQQKPGQAPRLLIKYASESISGIPDRFSGSGSGTDFTLTISRLEPEDFAVYYCQQNLNWPTTFGQGTKLEIK
notes: DVD-Ig, outer AB034 / inner AB400
B3: DVD2343 (bispecific antibody)
VH: EVQLVESGGGLVQPGGSLRLSCAASGFTFTDYTMDWVRQAPGKGLEWVADVNPNSGGSIYNQRFKGRFTLSVDRSKNTLYLQMNSLRAEDTAVYYCARNLGPSFYFDYWGQGTLVTVSSASTKGPQVQLQESGPGLVKPSQTLSLTCTVSGYSISSDFAWNWIRQPPGKGLEWMGYISYSGNTRYQPSLKSRITISRDTSKNQFFLKLNSVTAADTATYYCVTAGRGFPYWGQGTLVTVSS
VL: DIQMTQSPSSLSASVGDRVTITCKASQDVSIGVAWYQQKPGKAPKLLIYSASYRYTGVPSRFSGSGSGTDFTLTISSLQPEDFATYYCQQYYIYPYTFGQGTKVEIKRTVAAPDIQMTQSPSSMSVSVGDRVTITCHSSQDINSNIGWLQQKPGKSFKGLIYHGTNLDDGVPSRFSGSGSGTDYTLTISSLQPEDFATYYCVQYAQFPWTFGGGTKLEIK
B4: DVD2303 (bispecific antibody)
VH: EVQLVESGGGLVQPGGSLRLSCAASGFTFTDYTMDWVRQAPGKGLEWVADVNPNSGGSIYNQRFKGRFTLSVDRSKNTLYLQMNSLRAEDTAVYYCARNLGPSFYFDYWGQGTLVTVSSASTKGPEVQLVESGGGLVQPGGSLRLSCAASGFSLTNYGVHWVRQAPGKGLEWLGVGWSGGNTDYNTPFTSRLTINKDNSKNTVYLQMNSLRAEDTAVYYCARALTWYDYEFAYWGQGTLVTVSS
VL: DIQMTQSPSSLSASVGDRVTITCKASQDVSIGVAWYQQKPGKAPKLLIYSASYRYTGVPSRFSGSGSGTDFTLTISSLQPEDFATYYCQQYYIYPYTFGQGTKVEIKRTVAAPDILLTQSPGTLSLSPGERATLSCRASQSIYTNIHWYQQKPGQAPRLLIKYASESISGIPDRFSGSGSGTDFTLTISRLEPEDFAVYYCQQNLNWPTTFGQGTKLEIK
notes: DVD-Ig, outer AB080 / inner AB400
B5: DVD2299 (bispecific antibody)
VH: EVQLVQSGGGLVKPGGSLRLSCAASGFTFSSYAMHWVRQAPGKGLEWVAVISYDGSNKYYADSVKGRFTISRDNSKNTLYLQMNSLRAEDTAVYYCARFSGWPNNYYYYGMDVWGQGTTVTVSSASTKGPEVQLVESGGGLVQPGGSLRLSCAASGFSLTNYGVHWVRQAPGKGLEWLGVGWSGGNTDYNTPFTSRLTINKDNSKNTVYLQMNSLRAEDTAVYYCARALTWYDYEFAYWGQGTLVTVSS
VL: DVVMTQSPLSLPVTPGEPASISCRSSQSLLHSNGFNYVDWYLQKPGQSPHLLIYFGSYRASGVPDRFSGSGSGTDFTLKISRVEAEDVGVYYCMQALQTPPWTFGQGTKVEIRRTVAAPDILLTQSPGTLSLSPGERATLSCRASQSIYTNIHWYQQKPGQAPRLLIKYASESISGIPDRFSGSGSGTDFTLTISRLEPEDFAVYYCQQNLNWPTTFGQGTKLEIK
notes: DVD-Ig, outer AB005 / inner AB400
B6: DVD2327 (bispecific antibody)
VH: EVQLLESGGGLVQPGGSLRLSCTASGFTFSSYAMNWVRQAPGKGLEWVSAISGSGGTTFYADSVKGRFTISRDNSRTTLYLQMNSLRAEDTAVYYCAKDLGWSDSYYYYYGMDVWGQGTTVTVSSASTKGPEVQLVQSGGGLVKPGGSLRLSCAASGFTFSSYAMHWVRQAPGKGLEWVAVISYDGSNKYYADSVKGRFTISRDNSKNTLYLQMNSLRAEDTAVYYCARFSGWPNNYYYYGMDVWGQGTTVTVSS
VL: DIQMTQFPSSLSASVGDRVTITCRASQGIRNDLGWYQQKPGKAPKRLIYAASRLHRGVPSRFSGSGSGTEFTLTISSLQPEDFATYYCLQHNSYPCSFGQGTKLEIKRTVAAPDVVMTQSPLSLPVTPGEPASISCRSSQSLLHSNGFNYVDWYLQKPGQSPHLLIYFGSYRASGVPDRFSGSGSGTDFTLKISRVEAEDVGVYYCMQALQTPPWTFGQGTKVEIR
notes: DVD-Ig, outer AB011 / inner AB005
B7: DVD2325 (bispecific antibody)
VH: EVQLVQSGGGLVKPGGSLRLSCAASGFTFSSFAMHWVRQAPGKGLEWISVIDTRGATYYADSVKGRFTISRDNAKNSLYLQMNSLRAEDTAVYYCARLGNFYYGMDVWGQGTTVTVSSASTKGPEVQLVQSGGGLVKPGGSLRLSCAASGFTFSSYAMHWVRQAPGKGLEWVAVISYDGSNKYYADSVKGRFTISRDNSKNTLYLQMNSLRAEDTAVYYCARFSGWPNNYYYYGMDVWGQGTTVTVSS
VL: EIVLTQSPGTLSVSPGERATLSCRASQSIGSSLHWYQQKPGQAPRLLIKYASQSLSGIPDRFSGSGSGTDFTLTISRLEPEDFAVYYCHQSSRLPHTFGQGTKVEIKRTVAAPDVVMTQSPLSLPVTPGEPASISCRSSQSLLHSNGFNYVDWYLQKPGQSPHLLIYFGSYRASGVPDRFSGSGSGTDFTLKISRVEAEDVGVYYCMQALQTPPWTFGQGTKVEIR
notes: DVD-Ig, outer AB077 / inner AB005
B8: DVD2333 (bispecific antibody)
VH: EVQLLESGGGLVQPGGSLRLSCAASGFTFSHYVMAWVRQAPGKGLEWVSSISSSGGWTLYADSVKGRFTISRDNSKNTLYLQMNSLRAEDTAVYYCTRGLKMATIFDYWGQGTLVTVSSASTKGPQVQLQESGPGLVKPSEILSLTCTVSGGSISSHYWSWVRQPPGKGLEWIGYIYYSGSTNYNPSLKSRVTISVDTSKNQFSLNLSSVTAADTAVYYCARIPNYYDRSGYYPGYWYFDLWGRGTLVTVSS
VL: QSALTQPASVSGSPGQSITISCTGTSSDVGSYNVVSWYQQHPGKAPKLIIYEVSQRPSGVSNRFSGSKSGNTASLTISGLQTEDEADYYCCSYAGSSIFVIFGGGTKVTVLGQPKAAPQAVLTQPSSLSAPPGASASLTCTLRSGFNVDSYRISWYQQKPGSPPQYLLRYKSDSDKQQGSGVPSRFSGSKDASANAGILLISGLQSEDEADYYCMIWHSSAWVFGGGTKLTVL
notes: DVD-Ig, outer AB116 / inner AB034
B9: DVD2323 (bispecific antibody)
VH: QVQLQQWGAGLLKPSETLSLTCAVYGGSFSGYYWSWIRQPPGKGLEWIGEINHSGSTNYNPSLKSRVTISVETSKNQFSLKLSSVTAADTAVYYCARDKWTWYFDLWGRGTLVTVSSASTKGPEVQLVQSGGGLVKPGGSLRLSCAASGFTFSSYAMHWVRQAPGKGLEWVAVISYDGSNKYYADSVKGRFTISRDNSKNTLYLQMNSLRAEDTAVYYCARFSGWPNNYYYYGMDVWGQGTTVTVSS
VL: DIEMTQSPDSLAVSLGERATINCRSSQSVLYSSSNRNYLAWYQQNPGQPPKLLIYWASTRESGVPDRFSGSGSGTDFTLTISSLQAEDVAVYYCQQYYSTPRTFGQGTKVEIKRTVAAPDVVMTQSPLSLPVTPGEPASISCRSSQSLLHSNGFNYVDWYLQKPGQSPHLLIYFGSYRASGVPDRFSGSGSGTDFTLKISRVEAEDVGVYYCMQALQTPPWTFGQGTKVEIR
notes: DVD-Ig, outer AB062 / inner AB005
B10: DVD2321 (bispecific antibody)
VH: EVQLLESGGGLVQPGGSLRLSCAASGFTFSHYVMAWVRQAPGKGLEWVSSISSSGGWTLYADSVKGRFTISRDNSKNTLYLQMNSLRAEDTAVYYCTRGLKMATIFDYWGQGTLVTVSSASTKGPEVQLVQSGGGLVKPGGSLRLSCAASGFTFSSYAMHWVRQAPGKGLEWVAVISYDGSNKYYADSVKGRFTISRDNSKNTLYLQMNSLRAEDTAVYYCARFSGWPNNYYYYGMDVWGQGTTVTVSS
VL: QSALTQPASVSGSPGQSITISCTGTSSDVGSYNVVSWYQQHPGKAPKLIIYEVSQRPSGVSNRFSGSKSGNTASLTISGLQTEDEADYYCCSYAGSSIFVIFGGGTKVTVLGQPKAAPDVVMTQSPLSLPVTPGEPASISCRSSQSLLHSNGFNYVDWYLQKPGQSPHLLIYFGSYRASGVPDRFSGSGSGTDFTLKISRVEAEDVGVYYCMQALQTPPWTFGQGTKVEIR
notes: DVD-Ig, outer AB116 / inner AB005
B11: DVD2319 (bispecific antibody)
VH: EVQLVESGGGLVQPGGSLRLSCAASGFTFSIYSMNWVRQAPGKGLEWVSYISSSSSTIYYADSVKGRFTISRDNAKNSLYLQMNSLRDEDTAVYYCARDRGDFDAFDIWGQGTMVTVSSASTKGPEVQLVQSGGGLVKPGGSLRLSCAASGFTFSSYAMHWVRQAPGKGLEWVAVISYDGSNKYYADSVKGRFTISRDNSKNTLYLQMNSLRAEDTAVYYCARFSGWPNNYYYYGMDVWGQGTTVTVSS
VL: DIQMTQSPSSLSASVGDRVTITCQASQDITNYLNWYQQKPGKAPKLLIYDASNLETGVPSRFSGSGSGTDFTFTISSLQPEDIATYNCQQCENFPITFGQGTRLEIKRTVAAPDVVMTQSPLSLPVTPGEPASISCRSSQSLLHSNGFNYVDWYLQKPGQSPHLLIYFGSYRASGVPDRFSGSGSGTDFTLKISRVEAEDVGVYYCMQALQTPPWTFGQGTKVEIR
notes: DVD-Ig, outer AB063 / inner AB005

Biological target: T1, EGFR on the cell surface (human, UniProt P00533 25-1210)
T1 construct: whole, on cells
Experiment: flow cytometry on cells, 2 ug/mL, C-terminal VD;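 also: cells stained for 30 to 60 min on ice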

Binder	GEO MEAN
B1	266
B2	252
B3	6.47
B4	185
B5	320

Biological target: T2, Recombinant Human IGF1R (human, UniProt P08069 31-932)
T2 construct: bought reagent
Experiment: SPR (Biacore), N-terminal VD;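 also: capture of antibodies or DVD-Ig proteins on an anti-mouse IgG chip surface, recombinant antigen injected at 10–200 nM in HBS-EP running buffer at 25 °C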
Procedure: (§1) The BIACORE assay (Biacore, Inc, Piscataway, N.J.) determined the affinity of antibodies or DVD-Ig proteins with kinetic measurements of on-rate and off-rate constants. Binding of antibodies or DVD-Ig proteins to a target antigen (for example, a purified recombinant target antigen) was determined by surface plasmon resonance-based measurements with a Biacore® 1000 or 3000 instrument (Biacore AB, Uppsala. Sweden) using running HBS-EP (10 mM HEPES [pH 7.4], 150 mM NaCl, 3 mM EDTA, and 0.005% surfactant P20) at 25° C. […] For example, approximately 5000 RU of goat anti-mouse IgG, (Fcγ), fragment specific polyclonal antibody (Pierce Biotechnology Inc, Rockford, Ill.) diluted in 10 mM sodium acetate (pH 4.5) was directly immobilized across a CM5 research grade biosensor chip using a standard amine coupling kit according to manufacturer's instructions and procedures at 25 μg/ml. Unreacted moieties on the biosensor surface were blocked with ethanolamine. Modified carboxymethyl dextran surface in flowcell 2 and 4 was used as a reaction surface. Unmodified carboxymethyl dextran without goat anti-mouse IgG in flow cell 1 and 3 was used as the reference surface. For kinetic analysis, rate equations derived from the 1:1 Langmuir binding model were fitted simultaneously to association and dissociation phases of all eight injections (using global fit analysis) with the use of Biaevaluation 4.0.1 software. Purified antibodies or DVD-Ig proteins were diluted in HEPES-buffered saline for capture across goat anti-mouse IgG specific reaction surfaces. Antibodies or DVD-Ig proteins to be captured as a ligand (25 μg/ml) were injected over reaction matrices at a flow rate of 5 μl/minute. The association and dissociation rate constants, kₒₙ (M⁻¹s⁻¹) and koff (s⁻¹) were determined under a continuous flow rate of 25 μl/minute. Rate constants were derived by making kinetic binding measurements at different antigen concentrations ranging from 10-200 nM. The equilibrium dissociation constant (M) of the reaction between antibodies or DVD-Ig proteins and the target antigen was then calculated from the kinetic rate constants by the following formula: KD=koff/kₒₙ. Binding was recorded as a function of time and kinetic rate constants were calculated.

Binder	Kd [nM]	koff [s⁻¹]	kon [M⁻¹ s⁻¹]
B6	1.5	7e-05	46000
B7	0.11	6.6e-06	60000

Biological target: T3, Recombinant Human ErbB3/FC Chimera-His tag (human, UniProt P21860 20-643)
T3 construct: bought reagent
Experiment: SPR (Biacore), N-terminal VD;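 also: capture of antibodies or DVD-Ig proteins on an anti-mouse IgG chip surface, recombinant antigen injected at 10–200 nM in HBS-EP running buffer at 25 °C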
Procedure: as §1

Binder	binding result	Kd [nM]	koff [s⁻¹]	kon [M⁻¹ s⁻¹]
B8	no binding (tested: 10-200 nM)	–	–	–
B9	–	7.7	0.00046	60000
B10	–	12	0.00031	25000
B11	–	5.4	0.0017	310000

Biological target: T4, Recombinant Human MSP Receptor ECD-His tag (human, UniProt Q04912 25-957)
T4 construct: extracellular domain; bought reagent; also called RON
Experiment: SPR (Biacore), C-terminal VD;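 also: surface plasmon resonance with DVD-Ig proteins captured on an anti-IgG chip and recombinant antigen flowed over in HBS-EP buffer, Langmuir global fit, KD taken as koff/kon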
Procedure: as §1

Binder	binding result
B8	no binding (tested: 10-200 nM)
B6	no binding (tested: 10-200 nM)
B7	no binding (tested: 10-200 nM)
B9	no binding (tested: 10-200 nM)
B10	no binding (tested: 10-200 nM)
B11	no binding (tested: 10-200 nM)

From US20130195871A1 (AbbVie / Abbott, published 2013)
